Source: patent US20260125472A1 (HEFEI TG IMMUNOPHARMA, published 2026)

Assays:
[1] = target: T1, CD3E&D protein (UniProt P04234 22-105); test: SPR (Biacore 8K), antibody on CM5 chip, CD3 E&D antigen as analyte; parameters: Fold change: reference not given here
T1 construct: Purchased from Acro; also called CD3 E&D antigens; CD3E&D antigen protein
Procedure: In a Biacore 8K (Cytiva) system, the antibody was diluted to 10 μg/mL in HBS-EP running buffer and coupled to a CM5 chip (Cytiva) at a flow rate of 10 μL/min.

[2] = target: T2, Trop2 on A-375-Trop2 melanoma cells (UniProt P09758 27-323, limits assumed); test: flow cytometry, A-375-Trop2 cells, MFI [panel B]
T2 construct: whole, on cells
T2 sequence (looked up): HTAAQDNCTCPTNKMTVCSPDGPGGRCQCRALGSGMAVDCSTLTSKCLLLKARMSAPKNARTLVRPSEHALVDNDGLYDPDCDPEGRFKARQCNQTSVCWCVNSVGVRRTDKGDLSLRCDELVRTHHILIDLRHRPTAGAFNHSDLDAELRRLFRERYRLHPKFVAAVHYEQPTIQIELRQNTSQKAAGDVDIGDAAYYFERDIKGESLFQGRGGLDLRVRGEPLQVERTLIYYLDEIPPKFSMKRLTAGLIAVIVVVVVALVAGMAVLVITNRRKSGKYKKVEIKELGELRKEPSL
Procedure: (2) The tumor cells were diluted to 2×10⁶/ml with PBS and added to a 1.5 ml EP tube at a volume of 100 μl/tube, and goat serum was added thereto at 10 μl/tube. The cells were blocked at 4° C. for 30 min. The serially diluted bispecific antibodies, Cross3×Trop2, Cross303×Trop2, Cross307×Trop2, Cross308×Trop2, Cross309×Trop2, Cross310×Trop2, Cross311×Trop2, Cross312×Trop2, Cross313×Trop2, Cross314×Trop2, Cross316×Trop2, Cross317×Trop2, Cross318×Trop2, Cross323×Trop2, Cross325×Trop2, Cross326×Trop2, and Cross3×PDL1, Cross303×PDL1, Cross307×PDL1, Cross308×PDL1, Cross309×PDL1, Cross310×PDL1, Cross311×PDL1, Cross312×PDL1, Cross313×PDL1, Cross314×PDL1, Cross316×PDL1, Cross317×PDL1, Cross318×PDL1, Cross323×PDL1, Cross325×PDL1, Cross326×PDL1, and control hIgG1LALA (purchased from Bio-Tech) were added and incubated at 4° C. for 30 min. 1 ml of PBS was added to the EP tube, followed by centrifugation at 3500 rpm for 5 min at 4° C. The supernatant was discarded, and the cells were washed again with PBS. After centrifugation, the supernatant was completely discarded, and the cells were resuspended with PBS at 100 μl/tube. Alexa-647-labeled goat anti-human IgG secondary antibody (purchased from Jackson lab) was added at 1 μl/tube and incubated at 4° C. in the dark for 30 min. The cells were washed twice with PBS, and the supernatant was completely discarded after centrifugation. The cells were resuspended with PBS at 200 μl/tube and assay was performed using the flow cytometry.

[3] = target: T3, Trop2 protein (UniProt P09758 27-274); test: ELISA, coated Trop2 protein, OD450
T3 construct: Bought recombinant protein; also called Trop2-Biotin protein (biotin-labelled, bridging ELISA)
T3 sequence (looked up): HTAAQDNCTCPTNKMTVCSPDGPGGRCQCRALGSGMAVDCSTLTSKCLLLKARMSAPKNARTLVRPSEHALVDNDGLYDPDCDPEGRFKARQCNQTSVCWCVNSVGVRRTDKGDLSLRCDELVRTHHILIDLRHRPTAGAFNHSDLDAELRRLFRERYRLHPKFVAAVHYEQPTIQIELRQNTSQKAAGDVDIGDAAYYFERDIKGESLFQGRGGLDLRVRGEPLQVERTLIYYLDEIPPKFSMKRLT
Source text: In this example, the binding properties of the CD3×Trop2 and CD3×PDL1 bispecific antibody (the production method and the amino acid sequences of the heavy and light chains were shown in Example 1) were detected by using ELISA. The CD3E&D, Trop2, or PDL1 protein was coated onto 96-well plates by inventors, and the strength of the signal after the addition of the antibody was used to determine the binding properties of the antibody and the corresponding protein.
(2) Trop2 protein (purchased from Acro) was diluted to 2 μg/ml with PBS buffer, added to a 96-well plate at a volume of 100 μL/well, and placed at 4° C. overnight. The PBS buffer in the 96-well plate was aspirated, and the plate was washed 6 times with PBST (pH 7.2 PBS containing 0.1% Tween 20) buffer. Then, 200 μL/well PBS/10% BSA was added and incubated at 37° C. for 2 h for blocking. The blocking solution was removed, and the plate was washed six times with PBST. Then, the to-be-tested bispecific antibodies, Cross3×Trop2, Cross303×Trop2, Cross307×Trop2, Cross308×Trop2, Cross309×Trop2, Cross310×Trop2, Cross311×Trop2, Cross312×Trop2, Cross313×Trop2, Cross314×Trop2, Cross316×Trop2, Cross317×Trop2, Cross318×Trop2, Cross323×Trop2, Cross325×Trop2, Cross326×Trop2, and control IgG1LALA (purchased from Bio-Tech), serially diluted with PBST/0.05% BSA, were added at 100 μL/well and incubated at 37° C. for 1 h. The reaction system was removed, and the plate was washed 6 times with PBST. Then, HRP (horseradish peroxidase)-labeled anti-human secondary antibody (Fab specific) (purchased from Sigma) diluted with PBST/0.05% BSA at 100 μL/well. After the plate was washed six times with PBST, TMB (tetramethylbenzidine) was added at 80 μL/well, and incubated at room temperature for 3 min. 4 M sulfuric acid was added at 80 μL/well to terminate the reaction. The absorbance was read at 450 nm using a microplate reader.

T1 sequence (chain, as listed by the source limits assumed, chain 1 of 2): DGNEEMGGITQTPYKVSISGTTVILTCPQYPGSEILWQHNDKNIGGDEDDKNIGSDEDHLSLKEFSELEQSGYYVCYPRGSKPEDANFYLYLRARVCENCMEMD
T1 sequence (P04234 22-105 limits assumed, chain 2 of 2): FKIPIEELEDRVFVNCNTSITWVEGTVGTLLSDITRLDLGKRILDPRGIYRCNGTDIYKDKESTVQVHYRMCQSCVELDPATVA

B1: Cross3ZH07 (antibody, human IgG1, kappa, V domains shown)
VH: EVQLLESGGGLVQPGGSLKLSCAASGFTFNTYAMNWVRQAPGKGLEWVARIRSKYNNYATYYADSVKDRFTISRDDSKNTAYLQMNNLKTEDTAVYYCVRHGMFGNSYVSWFAYWGQGTLVTVSS
VL: ELVVTQEPSLTVSPGGTVTLTCRSSTGAVTTSNYANWVQQKPGQAPRGLIGGTNKRAPGTPARFSGSLLGGKAALTLSGVQPEDEAEYYCALWYPNPWVFGGGTKLTVLR
- Fold change [1]: 69.1
- Kd [1]: 11.4 nM
- koff [1]: 0.00138 s⁻¹
- kon [1]: 121000 M⁻¹ s⁻¹

B2: Cross3ZH16 (antibody, human IgG1, kappa, V domains shown)
VH: EVQLLESGGGLVQPGGSLKLSCAASGFTFNTYAMNWVRQAPGKGLEWVARIRSKYNNYATYYADSVKDRFTISRDDSKNTAYLQMNNLKTEDTAVYYCVRHGNFGNSYVSWFAYWGQGTLVTVSS
VL: ELVVTQEPSLTVSPGGTVTLTCRSSTGAVTTSNYANWVQQKPGQAPRGLIGGTNKRAPGTPARFSGSLLGGKAALTLSGVQPEDEAEYYCALWYPNDWVFGGGTKLTVLR
- Fold change [1]: 105
- Kd [1]: 17.3 nM
- koff [1]: 0.0243 s⁻¹
- kon [1]: 1.41e+06 M⁻¹ s⁻¹

B3: Cross3ZH09 (antibody, human IgG1, kappa, V domains shown)
VH: EVQLLESGGGLVQPGGSLKLSCAASGFTFNTYAMNWVRQAPGKGLEWVARIRSKYNNYATYYADSVKDRFTISRDDSKNTAYLQMNNLKTEDTAVYYCVRHGNFGNSYVSWFLYWGQGTLVTVSS
VL: ELVVTQEPSLTVSPGGTVTLTCRSSTGAVTTSNYANWVQQKPGQAPRGLIGGTNKRAPGTPARFSGSLLGGKAALTLSGVQPEDEAEYYCALWYPNPWVFGGGTKLTVLR
- Fold change [1]: 636
- Kd [1]: 105 nM
- koff [1]: 0.00296 s⁻¹
- kon [1]: 28100 M⁻¹ s⁻¹

B4: Cross3ZH23 (antibody, human IgG1, kappa, V domains shown)
VH: EVQLLESGGGLVQPGGSLKLSCAASGFTFNTYAMNWVRQAPGKGLEWVARIRSKYNNYATYYADSVKDRFTISRDDSKNTAYLQMNNLKTEDTAVYYCVRHGNFGNDYVSWFAYWGQGTLVTVSS
VL: ELVVTQEPSLTVSPGGTVTLTCRSSTGAVTTSNYANWVQQKPGQAPRGLIGGTNKRAPGTPARFSGSLLGGKAALTLSGVQPEDEAEYYCALWYSNPWVFGGGTKLTVLR
- Fold change [1]: 4090
- Kd [1]: 675 nM
- koff [1]: 0.055 s⁻¹
- kon [1]: 81500 M⁻¹ s⁻¹

B5: Cross3×Trop2 (bispecific antibody)
scFv: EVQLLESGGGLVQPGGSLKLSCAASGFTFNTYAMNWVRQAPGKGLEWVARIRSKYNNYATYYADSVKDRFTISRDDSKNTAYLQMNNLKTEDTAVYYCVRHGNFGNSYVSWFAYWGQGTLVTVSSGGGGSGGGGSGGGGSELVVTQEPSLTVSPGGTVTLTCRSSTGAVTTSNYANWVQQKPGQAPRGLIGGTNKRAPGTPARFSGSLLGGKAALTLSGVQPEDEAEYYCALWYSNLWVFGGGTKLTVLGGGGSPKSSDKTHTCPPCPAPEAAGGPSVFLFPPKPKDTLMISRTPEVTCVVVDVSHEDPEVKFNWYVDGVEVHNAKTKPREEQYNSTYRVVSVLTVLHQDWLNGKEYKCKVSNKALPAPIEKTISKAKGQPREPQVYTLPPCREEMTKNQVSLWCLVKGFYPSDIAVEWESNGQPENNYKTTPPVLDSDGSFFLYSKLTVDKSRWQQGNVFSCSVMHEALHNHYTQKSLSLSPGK
heavy: QVQLQQSGSELKKPGASVKVSCKASGYTFTNYGMNWVKQAPGQGLKWMGWINTYTGEPTYTDDFKGRFAFSLDTSVSTAYLQISSLKADDTAVYFCARGGFGSSYWYFDVWGQGSLVTVSSASTKGPSVFPLAPSSKSTSGGTAALGCLVKDYFPEPVTVSWNSGALTSGVHTFPAVLQSSGLYSLSSVVTVPSSSLGTQTYICNVNHKPSNTKVDKKVEPKSSDKTHTCPPCPAPEAAGGPSVFLFPPKPKDTLMISRTPEVTCVVVDVSHEDPEVKFNWYVDGVEVHNAKTKPREEQYNSTYRVVSVLTVLHQDWLNGKEYKCKVSNKALPAPIEKTISKAKGQPREPQVCTLPPSREEMTKNQVSLSCAVKGFYPSDIAVEWESNGQPENNYKTTPPVLDSDGSFFLVSKLTVDKSRWQQGNVFSCSVMHEALHNHYTQKSLSLSPGK
light: DIQLTQSPSSLSASVGDRVSITCKASQDVSIAVAWYQQKPGKAPKLLIYSASYRYTGVPDRFSGSGSGTDFTLTISSLQPEDFAVYYCQQHYITPLTFGAGTKVEIKRTVAAPSVFIFPPSDEQLKSGTASVVCLLNNFYPREAKVQWKVDNALQSGNSQESVTEQDSKDSTYSLSSTLTLSKADYEKHKVYACEVTHQGLSSPVTKSFNRGEC
notes: also called parental Cross3×Trop2 bispecific antibody
- EC50 (read off the curve) [2]: ~1 µg/mL
- EC50 (read off the curve) [3]: ~0.008 µg/mL

B6: Cross303×Trop2 (bispecific antibody)
scFv: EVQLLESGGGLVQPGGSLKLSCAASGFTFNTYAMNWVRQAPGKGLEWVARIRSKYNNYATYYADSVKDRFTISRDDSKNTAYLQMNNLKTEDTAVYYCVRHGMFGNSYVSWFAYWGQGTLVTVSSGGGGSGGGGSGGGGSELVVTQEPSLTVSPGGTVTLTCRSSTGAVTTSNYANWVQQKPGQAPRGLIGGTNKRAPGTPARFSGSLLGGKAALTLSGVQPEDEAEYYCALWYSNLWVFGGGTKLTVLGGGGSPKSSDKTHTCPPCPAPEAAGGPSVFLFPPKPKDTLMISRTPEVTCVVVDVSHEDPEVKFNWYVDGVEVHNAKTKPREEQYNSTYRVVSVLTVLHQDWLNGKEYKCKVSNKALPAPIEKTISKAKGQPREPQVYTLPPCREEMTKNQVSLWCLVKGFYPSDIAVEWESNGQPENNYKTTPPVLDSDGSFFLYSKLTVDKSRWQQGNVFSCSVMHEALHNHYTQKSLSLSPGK
heavy: QVQLQQSGSELKKPGASVKVSCKASGYTFTNYGMNWVKQAPGQGLKWMGWINTYTGEPTYTDDFKGRFAFSLDTSVSTAYLQISSLKADDTAVYFCARGGFGSSYWYFDVWGQGSLVTVSSASTKGPSVFPLAPSSKSTSGGTAALGCLVKDYFPEPVTVSWNSGALTSGVHTFPAVLQSSGLYSLSSVVTVPSSSLGTQTYICNVNHKPSNTKVDKKVEPKSSDKTHTCPPCPAPEAAGGPSVFLFPPKPKDTLMISRTPEVTCVVVDVSHEDPEVKFNWYVDGVEVHNAKTKPREEQYNSTYRVVSVLTVLHQDWLNGKEYKCKVSNKALPAPIEKTISKAKGQPREPQVCTLPPSREEMTKNQVSLSCAVKGFYPSDIAVEWESNGQPENNYKTTPPVLDSDGSFFLVSKLTVDKSRWQQGNVFSCSVMHEALHNHYTQKSLSLSPGK
light: DIQLTQSPSSLSASVGDRVSITCKASQDVSIAVAWYQQKPGKAPKLLIYSASYRYTGVPDRFSGSGSGTDFTLTISSLQPEDFAVYYCQQHYITPLTFGAGTKVEIKRTVAAPSVFIFPPSDEQLKSGTASVVCLLNNFYPREAKVQWKVDNALQSGNSQESVTEQDSKDSTYSLSSTLTLSKADYEKHKVYACEVTHQGLSSPVTKSFNRGEC
- EC50 (read off the curve) [2]: ~1 µg/mL
- EC50 (read off the curve) [3]: ~0.008 µg/mL

B7: Cross307×Trop2 (bispecific antibody)
scFv: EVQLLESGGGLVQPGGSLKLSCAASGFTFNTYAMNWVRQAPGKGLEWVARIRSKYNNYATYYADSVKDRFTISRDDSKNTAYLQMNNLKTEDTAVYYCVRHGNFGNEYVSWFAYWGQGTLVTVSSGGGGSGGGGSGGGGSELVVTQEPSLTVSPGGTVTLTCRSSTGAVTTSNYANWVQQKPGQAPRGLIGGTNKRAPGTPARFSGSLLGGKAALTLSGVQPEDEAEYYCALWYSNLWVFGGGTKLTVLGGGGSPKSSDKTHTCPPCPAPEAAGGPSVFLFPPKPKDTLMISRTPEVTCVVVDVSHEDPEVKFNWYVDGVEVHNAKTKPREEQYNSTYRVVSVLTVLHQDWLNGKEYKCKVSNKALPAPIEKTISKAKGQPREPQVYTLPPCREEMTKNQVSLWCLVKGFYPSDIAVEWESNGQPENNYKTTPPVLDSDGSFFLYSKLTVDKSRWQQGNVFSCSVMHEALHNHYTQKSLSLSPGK
heavy: QVQLQQSGSELKKPGASVKVSCKASGYTFTNYGMNWVKQAPGQGLKWMGWINTYTGEPTYTDDFKGRFAFSLDTSVSTAYLQISSLKADDTAVYFCARGGFGSSYWYFDVWGQGSLVTVSSASTKGPSVFPLAPSSKSTSGGTAALGCLVKDYFPEPVTVSWNSGALTSGVHTFPAVLQSSGLYSLSSVVTVPSSSLGTQTYICNVNHKPSNTKVDKKVEPKSSDKTHTCPPCPAPEAAGGPSVFLFPPKPKDTLMISRTPEVTCVVVDVSHEDPEVKFNWYVDGVEVHNAKTKPREEQYNSTYRVVSVLTVLHQDWLNGKEYKCKVSNKALPAPIEKTISKAKGQPREPQVCTLPPSREEMTKNQVSLSCAVKGFYPSDIAVEWESNGQPENNYKTTPPVLDSDGSFFLVSKLTVDKSRWQQGNVFSCSVMHEALHNHYTQKSLSLSPGK
light: DIQLTQSPSSLSASVGDRVSITCKASQDVSIAVAWYQQKPGKAPKLLIYSASYRYTGVPDRFSGSGSGTDFTLTISSLQPEDFAVYYCQQHYITPLTFGAGTKVEIKRTVAAPSVFIFPPSDEQLKSGTASVVCLLNNFYPREAKVQWKVDNALQSGNSQESVTEQDSKDSTYSLSSTLTLSKADYEKHKVYACEVTHQGLSSPVTKSFNRGEC
- EC50 (read off the curve) [2]: ~1 µg/mL
- EC50 (read off the curve) [3]: ~0.008 µg/mL
